B1: CD2-associated protein, residues 271 to 331; numbered along this chain, Q9Y5K6 (parent)
chain: KEYCRTLFAYEGTNEDELTFKEGEIIHLISKETGEAGWWRGELNGKEGVFPDNFAVQINEL

Variants of: B1
Test: abundance fitness (aPCA) (normalised: wild type 0, dead -1); higher = more abundant; growth selection in yeast, the domain comes from the species named
Settings: Homo sapiens

Abundance fitness of substitutions, site by site:
N44: P -1.14 | R -0.073 | W -0.568 | F -0.449 | T -0.518 | C -0.273
T33: N -0.333 | V -0.129 | W -0.331 | E -0.471 | L -0.349 | A -0.198 | F -0.32 | Q -0.451 | G -0.076 | D -0.282 | R -0.473 | P -0.242 | K -0.332 | H -0.209 | S -0.097 | I -0.099 | M -0.468 | C -0.163 | Y -0.222
G45: N -0.359 | C -0.322 | A -0.437 | V -0.845 | Q -0.612 | E -0.448 | T -0.746 | W -0.829 | M -0.695 | H -0.343 | R -0.617 | F -0.408 | K -0.438 | P -0.784 | I -0.453 | S -0.376 | L -0.858
H27: Y -0.126
S30: A -0.129 | W -0.957 | G -0.328 | F -0.967 | V -0.709 | R -0.419 | P -0.71 | T 0.023 | N -0.152 | Q -0.36 | L -0.859 | C -0.365 | D -0.2
G41: H -0.746 | R -0.909 | I -1.08 | Y -0.938 | P -0.605 | N -0.881 | D -0.616 | V -1.06 | C -1.07 | W -1.14 | F -0.949 | T -0.636 | L -0.747 | M -1.01 | S -0.71 | Q -0.657 | A -0.703
G37: D -0.617 | Q -0.428 | I -0.613 | T -0.416 | H -0.306 | M -0.819 | W -1.08 | S -0.718 | R -0.651 | V -0.647 | Y -0.898 | P -0.852 | K -0.403 | L -0.884 | E -0.368 | F -0.492 | N -0.747
L43: Q -0.682 | I -0.004 | Y -0.294 | K -0.156 | C -0.26 | F -0.475 | W -0.605 | E -0.703 | V -0.308 | G -0.766 | H -0.522 | R -0.214 | N -0.468 | T -0.505 | P -0.701 | S -0.411 | A -0.285 | D -0.458 | M -0.219
E47: C -0.104 | F -0.198 | G -0.479 | A -0.248 | D -0.347
L28: I -0.068 | V -0.005 | K -0.503 | S -0.712 | A -0.812 | W -0.871 | N -0.59 | H -0.623 | M -0.482 | T -0.441 | Y -0.702 | R -0.706 | D -0.82 | E -0.738 | G -0.778 | P -0.614 | C -0.676 | Q -0.913
W39: I -0.851 | D -0.941 | F -0.513 | P -0.724 | C -0.48 | Q -0.661 | N -0.734 | V -0.519 | G -0.615 | K -0.536 | T -0.696 | M -0.278 | A -0.328 | L -0.532 | R -0.547 | H -0.623 | E -0.663 | Y -0.579
E32: P -0.553 | K -0.044 | G -0.261 | H -0.202 | T -0.111 | W -0.116 | Q -0.139 | L -0.481 | C -0.164 | I -0.18 | M -0.307 | S -0.091 | R -0.222 | V -0.152 | N 0.085 | D -0.003 | Y -0.167
